Data reported in publication PMC3901395, “Multivalent interactions of the SUMO-interaction motifs in RING finger protein 4 determine the specificity for chains of the SUMO” (Biochemical Journal, 2013).

Experiments:
tri-SUMO2–GFP–HA2 = test: Proteasomal targeting of tri-SUMO2–GFP–HA2 by RNF4 in yeast; assay type: cell-based, S. cerevisiae; conditions: yeast coexpressing RNF4; Western blot, normalized to CDC11
Excerpt: (§1) For expression in Escherichia coli, linear poly-SUMO chains were generated as described previously with slight modifications. After the combined PCR/ligation reaction, the 4×SUMO2-ΔN11 or 4×SUMO1-ΔN15 DNA polymers were separated from smaller polymers by agarose gel electrophoresis and individually extracted (Macherey–Nagel). These were then subjected to a second PCR with primers to create BamHI and XhoI restriction sites, a C-terminal GG motif and a stop codon. The resulting fragments coding for di-, tri- and tetra-SUMO2-ΔN11 or SUMO1-ΔN15 chains were amplified and cloned into pGEX-4T2. […] Each monomer in these chains is separated by RS replacing the natural GG motif. […]
(§2) wt (wild-type) S. cerevisiae strains (JD47-13C) containing centromeric (low copy) plasmids expressing various (SUMO2)n–GFP–HA2 ([…]) fusions were grown overnight in minimal medium composed of 0.67% yeast nitrogen base with 2% raffinose as a carbon source. Cells from the overnight cultures were used to inoculate cultures with minimal media containing 2% galactose at a starting attenuance measured at 600 nm of 0.25. […] The levels of substrates and, as a loading control, levels of CDC11 were analysed by Western blotting and detection with an Odyssey infrared fluorescence imaging system (LI-COR).

[1] = test system: mono-SUMOs and SUMO chains; test: ITC binding to mono-SUMOs and SUMO chains (general statements); conditions: full-length dimerized RNF4 vs SIM domain
Excerpt: as §1, with “motif. A similar strategy was used to design C-terminally GFP–HA2-tagged linear poly-SUMOs in the copper-inducible Ycplac22 vector for expression in S. cerevisiae.” for “motif.”
The mono-SUMOs and linear poly-SUMO1 and poly-SUMO2 proteins as well as all RNF4 constructs were expressed as GST-fusion proteins from E. coli Rosetta™ 2(DE3)pLysS cells (Novagen) cultivated in LB medium with 100 μg/ml ampicillin and 30 μg/ml chloramphenicol after induction with 0.1 mM IPTG at 20°C for 12 h. […]
Binding of peptides and proteins to SUMOs was investigated by ITC using either a VP-ITC or an ITC200 (GE Healthcare). […] Protein concentrations were determined by measuring the absorption at 280 nm. […]

tetra-SUMO2–GFP–HA2 = test: Proteasomal targeting of tetra-SUMO2–GFP–HA2 by RNF4 in yeast; assay type: cell-based, S. cerevisiae; conditions: yeast coexpressing RNF4; Western blot, normalized to CDC11
Excerpt: as §1, §2

di-SUMO2–GFP–HA2 = test: Proteasomal targeting of di-SUMO2–GFP–HA2 by RNF4 in yeast; assay type: cell-based, S. cerevisiae
Excerpt: as §1, §2

B1: RNF4 FL: full-length human RNF4 (RING finger protein 4); FLAG-tagged in yeast, HA-tagged in HeLa cells (protein)
chain: MSTRKRRGGAINSRQAQKRTREATSTPEISLEAEPIELVETAGDEIVDLTCESLEPVVVDLTHNDSVVIVDERRRPRRNARRLPQDHADSCVVSSDDEELSRDRDVYVTTHTPRNARDEGATGLRPSGTVSCPICMDGYSEIVQNGRLIVSTECGHVFCSQCLRDSLKNANTCPTCRKKINHKRYHPIYI
modifications: left off: GST, end not stated, cleaved
notes: full-length human RNF4 (RING finger protein 4); FLAG-tagged in yeast, HA-tagged in HeLa cells
level of tri-SUMO2–GFP–HA reporter (control without RNF4 = 100%) (tri-SUMO2–GFP–HA2): 45%
binding to SUMO chains compared with the monomeric SIM domain [1]: stronger as compared with the monomeric SIM domain, especially for short SUMO chains
level of tetra-SUMO2–GFP–HA reporter (control without RNF4 = 100%) (tetra-SUMO2–GFP–HA2): 43%
level of di-SUMO2–GFP–HA reporter (control without RNF4 = 100%) (di-SUMO2–GFP–HA2; yeast coexpressing RNF4, Western blot, normalized to CDC11): approximately 55%
targeting of di-SUMO2 in yeast (di-SUMO2–GFP–HA2; yeast coexpressing wt RNF4): efficiently targets di-SUMO2 in yeast
